Measured values: US20100209436

T1: human OPA1 splice variant 8 (A210V polymorphism)
T1 chain: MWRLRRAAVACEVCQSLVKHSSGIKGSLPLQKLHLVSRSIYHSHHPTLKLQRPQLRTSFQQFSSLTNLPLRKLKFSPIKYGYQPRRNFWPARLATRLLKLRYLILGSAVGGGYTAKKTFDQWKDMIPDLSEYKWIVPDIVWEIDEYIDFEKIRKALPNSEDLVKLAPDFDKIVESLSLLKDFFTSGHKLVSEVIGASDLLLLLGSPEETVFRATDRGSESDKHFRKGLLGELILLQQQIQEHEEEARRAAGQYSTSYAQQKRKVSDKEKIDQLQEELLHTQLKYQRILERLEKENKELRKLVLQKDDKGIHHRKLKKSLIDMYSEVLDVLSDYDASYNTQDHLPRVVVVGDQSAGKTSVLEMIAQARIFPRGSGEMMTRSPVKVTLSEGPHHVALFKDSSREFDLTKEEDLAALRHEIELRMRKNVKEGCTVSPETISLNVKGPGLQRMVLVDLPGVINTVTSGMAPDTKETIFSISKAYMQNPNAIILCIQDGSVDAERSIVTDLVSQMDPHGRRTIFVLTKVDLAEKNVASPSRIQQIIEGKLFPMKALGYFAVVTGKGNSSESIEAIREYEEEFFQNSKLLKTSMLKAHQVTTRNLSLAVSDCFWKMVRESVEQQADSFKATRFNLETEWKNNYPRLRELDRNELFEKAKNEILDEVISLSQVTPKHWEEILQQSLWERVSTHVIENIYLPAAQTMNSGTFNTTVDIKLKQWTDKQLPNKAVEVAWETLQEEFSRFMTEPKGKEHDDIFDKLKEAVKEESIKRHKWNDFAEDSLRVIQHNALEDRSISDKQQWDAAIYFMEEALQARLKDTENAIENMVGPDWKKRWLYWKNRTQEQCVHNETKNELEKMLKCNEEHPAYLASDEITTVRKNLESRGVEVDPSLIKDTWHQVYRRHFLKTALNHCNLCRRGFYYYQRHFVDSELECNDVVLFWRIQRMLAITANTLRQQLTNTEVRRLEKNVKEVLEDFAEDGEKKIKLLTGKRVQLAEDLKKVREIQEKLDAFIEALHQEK

T2: human OPA1 splice variant 4
T2 chain: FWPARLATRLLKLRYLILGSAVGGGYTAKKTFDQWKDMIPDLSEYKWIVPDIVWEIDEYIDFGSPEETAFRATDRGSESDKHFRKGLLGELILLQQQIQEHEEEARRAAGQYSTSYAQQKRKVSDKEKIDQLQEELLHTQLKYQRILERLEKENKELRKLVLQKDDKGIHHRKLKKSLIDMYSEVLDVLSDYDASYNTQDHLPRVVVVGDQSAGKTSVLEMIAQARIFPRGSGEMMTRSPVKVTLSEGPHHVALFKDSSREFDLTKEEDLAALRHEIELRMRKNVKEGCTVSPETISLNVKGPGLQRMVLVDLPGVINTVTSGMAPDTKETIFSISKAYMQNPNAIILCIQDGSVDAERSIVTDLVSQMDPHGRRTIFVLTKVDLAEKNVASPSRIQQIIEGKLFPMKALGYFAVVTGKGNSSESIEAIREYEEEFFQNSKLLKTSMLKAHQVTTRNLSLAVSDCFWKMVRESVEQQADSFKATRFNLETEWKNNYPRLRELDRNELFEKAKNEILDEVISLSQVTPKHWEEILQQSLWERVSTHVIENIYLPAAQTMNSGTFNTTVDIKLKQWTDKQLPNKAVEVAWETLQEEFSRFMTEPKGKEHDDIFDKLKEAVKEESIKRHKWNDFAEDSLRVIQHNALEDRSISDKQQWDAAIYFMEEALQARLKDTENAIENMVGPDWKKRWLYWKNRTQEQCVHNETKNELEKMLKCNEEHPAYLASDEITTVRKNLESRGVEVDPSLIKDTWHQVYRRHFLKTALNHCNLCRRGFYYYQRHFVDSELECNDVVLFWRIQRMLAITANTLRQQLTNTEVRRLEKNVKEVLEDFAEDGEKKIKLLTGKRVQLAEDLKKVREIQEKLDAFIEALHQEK

T3: human OPA1 splice variant 7
T3 chain: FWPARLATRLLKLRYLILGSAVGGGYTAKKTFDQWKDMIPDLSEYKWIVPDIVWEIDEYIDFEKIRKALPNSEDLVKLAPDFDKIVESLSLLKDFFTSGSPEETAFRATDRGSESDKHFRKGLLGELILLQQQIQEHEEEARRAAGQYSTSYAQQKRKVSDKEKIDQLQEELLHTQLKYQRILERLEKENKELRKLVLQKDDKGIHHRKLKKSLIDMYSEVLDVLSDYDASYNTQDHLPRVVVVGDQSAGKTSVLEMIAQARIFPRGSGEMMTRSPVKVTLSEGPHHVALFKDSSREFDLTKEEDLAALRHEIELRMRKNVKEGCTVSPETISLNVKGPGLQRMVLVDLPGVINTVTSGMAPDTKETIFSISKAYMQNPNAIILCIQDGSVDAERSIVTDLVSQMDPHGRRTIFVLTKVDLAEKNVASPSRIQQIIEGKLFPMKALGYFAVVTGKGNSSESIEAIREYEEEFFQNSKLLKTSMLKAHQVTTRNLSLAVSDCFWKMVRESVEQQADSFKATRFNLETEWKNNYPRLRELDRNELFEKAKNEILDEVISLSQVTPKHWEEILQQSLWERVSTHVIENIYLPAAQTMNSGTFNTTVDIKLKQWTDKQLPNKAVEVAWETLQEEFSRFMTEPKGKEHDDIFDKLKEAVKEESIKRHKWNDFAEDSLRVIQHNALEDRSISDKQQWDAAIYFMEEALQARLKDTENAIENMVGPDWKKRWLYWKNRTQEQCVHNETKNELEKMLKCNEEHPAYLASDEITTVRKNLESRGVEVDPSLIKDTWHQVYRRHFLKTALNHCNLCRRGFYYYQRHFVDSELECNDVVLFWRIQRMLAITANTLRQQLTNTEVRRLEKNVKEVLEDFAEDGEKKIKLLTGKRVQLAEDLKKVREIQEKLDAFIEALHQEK


Columns and labels:
[1] = biological target: T1, human OPA1 splice variant 8 (A210V …)
[2] = biological target: T2, human OPA1 splice variant 4
[3] = biological target: T3, human OPA1 splice variant 7

| Protein | OPA1 processing (western blot, Δyta10Δyta12 yeast) [1] | OPA1 processing (western blot, Δyta10Δyta12 yeast) [2] | OPA1 processing (western blot, Δyta10Δyta12 yeast) [3] | OPA1 processing (western blot, yeast deletion strains) [3] |
| --- | --- | --- | --- | --- |
| homo-oligomeric murine Afg3l1 complex (Yta10 (1-61)-Afg3l1 (25-789)-Myc) (protein) MMMWQRYARGAPRSLTSLSFGKASRISTVKPVLRSRMPVHQRLQTLSGLATRNTIHRSTQIGGCAGSGGTVWSSVRACGIALQGHLGRCSQQLALQGKLTSFSPRLYSKPPRGFEKFFKNKKNRKSASPGNSVPPKKEPKNAGPGGDGGNRGGKGDDFPWWKRMQKGEFPWDDKDFRSLAVLGAGVAAGFLYFYFRDPGKEITWKHFVQYYLARGLVDRLEVVNKQFVRVIPVPGTTSERFVWFNIGSVDTFERNLESAQWELGIEPTNQAAVVYTTESDGSFLRSLVPTLVLVSILLYAMRRGPMGTGRGGRGGGLFSVGETTAKILKNNIDVRFADVAGCEEAKLEIMEFVNFLKNPKQYQDLGAKIPKGAMLTGPPGTGKTLLAKATAGEANVPFITVNGSEFLEMFVGVGPARVRDMFAMARKHAPCILFIDEIDAIGRKRGRGHLGGQSEQENTLNQMLVEMDGFNSSTNVVVLAGTNRPDILDPALTRPGRFDRQIYIGPPDIKGRSSIFKVHLRPLKLDGSLSKDALSRKLAALTPGFTGADISNVCNEAALIAARHLSPSVQERHFEQAIERVIGGLEKKTQVLQPSEKTTVAYHEAGHAVVGWFLEHADPLLKVSIIPRGKGLGYAQYLPREQFLYTREQLFDRMCMMLGGRVAEQLFFGQITTGAQDDLRKVTQSAYAQIVQFGMSEKLGQVSFDFPRQGETMVEKPYSEATAQLIDEEVRCLVRSAYNRTLELLTQCREQVEKVGRRLLEKEVLEKADMIELLGPRPFAEKSTYEEFVEGTGSLEEDTSLPEGLKDWNKGREEGGTERGLQESPV | Afg3l1 and Afg3l2 complexes mediated processing of OPA1 splice variants 4 and 8 in a similar manner | Afg3l1 and Afg3l2 complexes mediated processing of OPA1 splice variants 4 and 8 in a similar manner | expression of each of the murine subunits, Afg3l2 or Afg3l1, in Δyta10Δyta12 cells promoted OPA1 processing; the isoform S4 predominantly accumulated in the presence of Afg3l1 | – |
| murine paraplegin expressed alone (Yta10 (1-61)-paraplegin (44-781)) (protein) MMMWQRYARGAPRSLTSLSFGKASRISTVKPVLRSRMPVHQRLQTLSGLATRNTIHRSTQIAARGTPVGPAAAGGHAPQSLLLRILTPSFEGISGLLLKQHIVPNAVRLWPLSGSTLYFNTSRMKQKNKDNDKPKGKTPEDDEEEKRRKEREDQMYRERLRTLFIIALVMSLLNSLSTSGGSISWADFVNEMLAKGEVQRVQVVPESDVVEVYLHPGAVVFGRPRLALMYRMQVANIDKFEEKLRAAEDELNIESKDRIPVSYKRTGFFGNALYALGMTAVGLAILWYVFRLAGMTGREGGFSAFNQLKMARFTIVDGKTGKGVSFQDVAGMHEAKLEVREFVDYLKSPERFLQLGAKVPKGALLLGPPGCGKTLLAKAVATEAQVPFLAMAGPEFVEVIGGLGAARVRSLFKEARARAPCIVYIDEIDAVGKKRSTSMSGFSNTEEEQTLNQLLVEMDGMGTTDHVIVLASTNRADVLDNALMRPGRLDRHVFIDLPTLQERREIFEQHLKGLKLTQPSSFYSQRLAELTPGFSGADIANICNEAALHAAREGHTSVHTFNFEYAVERVIAGTAKKSKILSKEEQRVVAFHESGHALVGWLLEHTEAVMKVSIAPRTNAALGFSQMLPRDQYLFTKEQLFERMCMALGGRAAEAISFSRVTSGAQDDLRKVTRIAYSMVKQFGMAPSIGPVSFPEAQEGLMGIGRRPFSQGLQQMMDHEAKLLVAKAYRHTEKVLLDNLDKLQALANALLEKEVINYEDIEALIGPPPHGPKKMIAPQKWIDAEKERQASGEEEAPAP | – | – | Cleavage of OPA1 upon expression of paraplegin alone was not observed | – |
| yeast m-AAA protease (subunits Yta10 and Yta12) (protein) chain 1: MMMWQRYARGAPRSLTSLSFGKASRISTVKPVLRSRMPVHQRLQTLSGLATRNTIHRSTQIRSFHISWTRLNENRPNKEGEGKNNGNKDNNSNKEDGKDKRNEFGSLSEYFRSKEFANTMFLTIGFTIIFTLLTPSSNNSGDDSNRVLTFQDFKTKYLEKGLVSKIYVVNKFLVEAELVNTKQVVSFTIGSVDIFEEQMDQIQDLLNIPPRDRIPIKYIERSSPFTFLFPFLPTIILLGGLYFITRKINSSPPNANGGGGGGLGGMFNVGKSRAKLFNKETDIKISFKNVAGCDEAKQEIMEFVHFLKNPGKYTKLGAKIPRGAILSGPPGTGKTLLAKATAGEANVPFLSVSGSEFVEMFVGVGASRVRDLFTQARSMAPSIIFIDEIDAIGKERGKGGALGGANDEREATLNQLLVEMDGFTTSDQVVVLAGTNRPDVLDNALMRPGRFDRHIQIDSPDVNGRQQIYLVHLKRLNLDPLLTDDMNNLSGKLATLTPGFTGADIANACNEAALIAARHNDPYITIHHFEQAIERVIAGLEKKTRVLSKEEKRSVAYHEAGHAVCGWFLKYADPLLKVSIIPRGQGALGYAQYLPPDQYLISEEQFRHRMIMALGGRVSEELHFPSVTSGAHDDFKKVTQMANAMVTSLGMSPKIGYLSFDQNDGNFKVNKPFSNKTARTIDLEVKSIVDDAHRACTELLTKNLDKVDLVAKELLRKEAITREDMIRLLGPRPFKERNEAFEKYLDPKSNTEPPEAPAATN chain 2: MLLLSWSRIATKVVRRPVRFRSYYGLTHIKSLHTQYRLLNRLQENKSGNKNEDNNEDAKLNKEIPTDEEVEAIRKQVEKYIEQTKNNTIPANWKEQKRKIDESIRRLEDAVLKQESNRIQEERKEKEEENGPSKAKSNRTKEQGYFEGNNSRNIPPPPPPPPPKPPLNDPSNPVSKNVNLFQIGLTFFLLSFLLDLLNSLEEQSEITWQDFREKLLAKGYVAKLIVVNKSMVKVMLNDNGKNQADNYGRNFYYFTIGSIDSFEHKLQKAQDELDIDKDFRIPVLYVQEGNWAKAMFQILPTVLMIAGIIWLTRRSAQAAGGSRGGIFGLSRSKAKKFNTETDVKIKFKDVAGCDEAKEEIMEFVSFLKEPSRYEKMGAKIPRGAILSGPPGTGKTLLAKATAGEAGVPFYFVSGSEFVEMFVGVGAARVRDLFKTARENAPSIVFIDEIDAIGKARQKGNFSGANDERENTLNQMLVEMDGFTPADHVVVLAGTNRPDILDKALLRPGRFDRHINIDKPELEGRKAIFAVHLHHLKLAGEIFDLKNRLAALTPGFSGADIANVCNEAALIAARSDEDAVKLNHFEQAIERVIGGVERKSKLLSPEEKKVVAYHEAGHAVCGWYLKYADPLLKVSIIPRGQGALGYAQYLPGDIFLLTEQQLKDRMTMSLGGRVSEELHFPSVTSGASDDFKKVTSMATAMVTELGMSDKIGWVNYQKRDDSDLTKPFSDETGDIIDSEVYRIVQECHDRCTKLLKEKAEDVEKIAQVLLKKEVLTREDMIDLLGKRPFPERNDAFDKYLNDYETEKIRKEEEKNEKRNEPKPSTN | – | – | – | small isoforms did not accumulate in cells lacking the yeast m-AAA protease subunits Yta10 or Yta12 |
